In patent US20140134132A1:

How the values were obtained:
Experiment in all cases: cell-based or functional assay
[1] = target: multidrug resistance associated protein 2 (human) (UniProt Q92887)
[2] = target: organic anion transporting polypeptide 1B1 (UniProt Q9Y6L6)
[3] = target: CYP3A4 (UniProt P08684)
Chain of CYP3A4 (P08684 whole entry): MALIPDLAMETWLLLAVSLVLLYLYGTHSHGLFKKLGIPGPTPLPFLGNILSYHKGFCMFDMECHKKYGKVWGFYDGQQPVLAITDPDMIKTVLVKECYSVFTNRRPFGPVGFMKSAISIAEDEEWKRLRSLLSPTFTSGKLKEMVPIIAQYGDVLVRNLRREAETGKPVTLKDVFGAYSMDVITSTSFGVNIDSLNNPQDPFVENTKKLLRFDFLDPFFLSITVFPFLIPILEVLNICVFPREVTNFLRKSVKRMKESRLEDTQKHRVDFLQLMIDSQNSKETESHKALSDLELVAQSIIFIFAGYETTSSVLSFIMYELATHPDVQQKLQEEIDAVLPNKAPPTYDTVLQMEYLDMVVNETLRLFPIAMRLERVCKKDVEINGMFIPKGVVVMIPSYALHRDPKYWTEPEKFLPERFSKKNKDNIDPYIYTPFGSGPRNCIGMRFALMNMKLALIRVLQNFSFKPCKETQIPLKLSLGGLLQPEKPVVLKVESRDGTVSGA

Chain of multidrug resistance associated protein 2 (human) (Q92887 whole entry): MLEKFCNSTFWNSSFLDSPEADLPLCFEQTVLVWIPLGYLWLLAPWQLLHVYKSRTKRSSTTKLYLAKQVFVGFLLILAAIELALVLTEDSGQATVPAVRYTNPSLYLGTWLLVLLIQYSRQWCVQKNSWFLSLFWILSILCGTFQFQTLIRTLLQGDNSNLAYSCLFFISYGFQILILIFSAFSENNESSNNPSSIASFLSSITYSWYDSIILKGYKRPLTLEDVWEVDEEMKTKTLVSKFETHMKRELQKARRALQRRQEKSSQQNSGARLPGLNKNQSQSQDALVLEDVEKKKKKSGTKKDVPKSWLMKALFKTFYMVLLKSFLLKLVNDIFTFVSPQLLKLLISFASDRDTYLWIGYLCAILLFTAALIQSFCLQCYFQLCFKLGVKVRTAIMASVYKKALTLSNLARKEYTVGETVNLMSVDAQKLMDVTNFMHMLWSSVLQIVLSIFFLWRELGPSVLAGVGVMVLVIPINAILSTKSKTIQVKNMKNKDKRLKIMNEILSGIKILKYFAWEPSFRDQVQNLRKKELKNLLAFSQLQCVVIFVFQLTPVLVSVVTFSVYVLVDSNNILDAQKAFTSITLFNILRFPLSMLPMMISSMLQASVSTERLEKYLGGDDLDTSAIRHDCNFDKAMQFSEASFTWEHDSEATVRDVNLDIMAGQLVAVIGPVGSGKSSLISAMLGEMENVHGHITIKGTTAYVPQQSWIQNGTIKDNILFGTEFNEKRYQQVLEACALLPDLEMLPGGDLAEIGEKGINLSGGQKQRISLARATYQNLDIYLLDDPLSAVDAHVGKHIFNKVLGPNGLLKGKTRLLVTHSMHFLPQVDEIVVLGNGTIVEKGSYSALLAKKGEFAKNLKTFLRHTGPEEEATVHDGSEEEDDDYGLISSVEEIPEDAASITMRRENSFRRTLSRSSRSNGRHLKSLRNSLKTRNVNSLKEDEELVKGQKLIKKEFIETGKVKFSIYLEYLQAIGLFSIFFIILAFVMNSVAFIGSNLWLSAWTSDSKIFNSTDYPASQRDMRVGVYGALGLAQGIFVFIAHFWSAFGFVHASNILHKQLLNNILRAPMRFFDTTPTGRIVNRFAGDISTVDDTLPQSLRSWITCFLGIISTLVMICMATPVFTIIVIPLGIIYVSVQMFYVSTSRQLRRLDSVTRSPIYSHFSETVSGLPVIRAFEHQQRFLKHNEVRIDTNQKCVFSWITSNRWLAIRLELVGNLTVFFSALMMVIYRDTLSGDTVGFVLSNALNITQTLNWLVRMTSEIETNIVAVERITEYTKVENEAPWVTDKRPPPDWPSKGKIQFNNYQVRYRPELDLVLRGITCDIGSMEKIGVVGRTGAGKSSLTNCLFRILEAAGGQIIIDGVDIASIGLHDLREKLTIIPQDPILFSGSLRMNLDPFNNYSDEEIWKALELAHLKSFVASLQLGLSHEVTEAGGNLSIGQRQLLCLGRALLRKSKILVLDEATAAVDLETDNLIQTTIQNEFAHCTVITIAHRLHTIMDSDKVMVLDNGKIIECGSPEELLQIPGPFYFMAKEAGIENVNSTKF
Chain of organic anion transporting polypeptide 1B1 (Q9Y6L6 whole entry): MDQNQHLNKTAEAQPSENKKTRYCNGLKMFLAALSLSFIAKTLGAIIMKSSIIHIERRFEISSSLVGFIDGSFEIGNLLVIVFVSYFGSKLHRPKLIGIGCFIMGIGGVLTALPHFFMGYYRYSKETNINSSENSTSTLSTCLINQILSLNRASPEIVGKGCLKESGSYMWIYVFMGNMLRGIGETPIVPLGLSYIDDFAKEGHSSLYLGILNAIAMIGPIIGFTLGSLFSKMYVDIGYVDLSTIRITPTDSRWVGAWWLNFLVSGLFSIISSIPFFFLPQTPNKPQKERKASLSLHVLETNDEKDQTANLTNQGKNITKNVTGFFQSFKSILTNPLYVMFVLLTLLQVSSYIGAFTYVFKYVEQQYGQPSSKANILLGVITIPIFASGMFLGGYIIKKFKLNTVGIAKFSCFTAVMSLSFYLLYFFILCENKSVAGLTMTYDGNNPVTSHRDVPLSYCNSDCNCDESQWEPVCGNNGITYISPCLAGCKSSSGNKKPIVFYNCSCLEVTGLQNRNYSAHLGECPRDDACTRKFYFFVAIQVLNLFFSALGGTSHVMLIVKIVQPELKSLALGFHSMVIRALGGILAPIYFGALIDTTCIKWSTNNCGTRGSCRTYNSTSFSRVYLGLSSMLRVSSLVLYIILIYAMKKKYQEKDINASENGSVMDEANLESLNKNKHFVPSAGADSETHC

Row | MRP2 IC50 [1] [µM] | OATP1B13 IC50 [2] [µM] | NIM TDI kinact/Ki [3] | Substance
1 | 13 | 4.8 | – | 3-[D-Ala]-4-[(2S,3R)-3-methyl-2-(methylamino)-4-(4-(methylsulfonyl)piperazin-1-yl)butanoyl]-cyclosporin (peptide)
2 | 18 | 8.2 | – | 3-[D-Ala]-4-[(2S,3R)-3-methyl-2-(methylamino)-4-morpholinobutanoyl]-cyclosporin (peptide)
3 | – | 6.9 | 0.001 | 3-[D-Ala]-4-[(2S,3R)-3-methyl-2-(methylamino)-6-morpholinohexanoyl]-cyclosporin (peptide)
4 | 15 | 1.9 | 5 M⁻¹ s⁻¹ | 3-[D-Ala]-4-[(2S,3R)-4-methoxy-3-methyl-2-(methylamino)butanoyl]-cyclosporin (peptide)
5 | 13 | 2.3 | – | 3-[D-Ala]-4-[(2S,3R)-5-methoxy-3-methyl-2-(methylamino)pentanoyl]-cyclosporin (peptide)
6 | 30 | 8.7 | – | 3-[D-Ala]-4-[(2S,3S)-3-methyl-2-(methylamino)-4-(2-((4-methylpiperazine-1-carbonyl)oxy)ethoxy)butanoyl]-cyclosporin (peptide)
7 | 23 | 7.6 | – | 3-[D-Ala]-4-[(2S,3S)-3-methyl-2-(methylamino)-4-(2-morpholinoethoxy)butanoyl]-cyclosporin (peptide)
8 | 21 | 6.7 | – | 3-[D-Ala]-4-[(2S,3S)-3-methyl-2-(methylamino)-4-((4-methylpiperazine-1-carbonyl)oxy)butanoyl]-cyclosporin (peptide)
9 | 9 | 1.4 | – | 3-[D-Ala]-4-[(2S,3S)-3-methyl-2-(methylamino)-4-(methylsulfonyl)butanoyl]-cyclosporin (peptide)
10 | 28 | 3 | – | 3-[D-Ala]-4-[(2S,3S)-4-(2-(1,1-dioxidothiomorpholino)ethoxy)-3-methyl-2-(methylamino)butanoyl]-cyclosporin (peptide)
11 | – | 3.5 | 0.0007 | 3-[D-Ala]-4-[(2S,3S)-4-(2-(4-cyclobutylpiperazin-1-yl)ethoxy)-3-methyl-2-(methylamino)butanoyl]-cyclosporin (peptide)
12 | – | 8 | – | 3-[D-Ala]-4-[(2S,3S)-4-(2-(4-isopropylpiperazin-1-yl)-2-oxoethoxy)-3-methyl-2-(methylamino)butanoyl]-cyclosporin (peptide)
13 | – | 4.4 | – | 3-[D-Ala]-4-[(2S,3S)-4-(2-(4-isopropylpiperazin-1-yl)ethoxy)-3-methyl-2-(methylamino)butanoyl]-cyclosporin (peptide)
14 | – | 3.6 | – | 3-[D-Ala]-4-[(2S,3S)-4-(2-((2R,5R)-2,5-dimethylmorpholino)ethoxy)-3-methyl-2-(methylamino)butanoyl]-cyclosporin (peptide)
15 | – | 5 | – | 3-[D-Ala]-4-[(2S,3S)-4-(2-((S)-3-methoxypyrrolidin-1-yl)ethoxy)-3-methyl-2-(methylamino)butanoyl]-cyclosporin (peptide)
16 | – | 1.8 | 0.0015 | 3-[D-Ala]-4-[(2S,3S)-4-(2-hydroxy-2-methylpropoxy)-3-methyl-2-(methylamino)butanoyl]-cyclosporin (peptide)
17 | – | 1.9 | – | 3-[D-Ala]-4-[(2S,3S)-4-((4-ethylpiperazine-1-carbonyl)oxy)-3-methyl-2-(methylamino)butanoyl]-cyclosporin (peptide)

Row | MRP2 IC50 [1] [µM] | OATP1B13 IC50 [2] [µM] | NIM TDI kinact/Ki [3] | Substance
18 | – | 1.9 | 0.0004 | 3-[D-Ala]-4-[(2S,3S)-4-(((S)-4-ethylmorpholin-2-yl)methoxy)-3-methyl-2-(methylamino)butanoyl]-cyclosporin (peptide)
19 | – | 4.3 | – | 3-[D-Ala]-4-[(2S,3S)-4-(((S)-4-isopropylmorpholin-2-yl)methoxy)-3-methyl-2-(methylamino)butanoyl]-cyclosporin (peptide)
20 | – | 3.6 | – | 3-[D-Ala]-4-[(2S,3S)-4-hydroxy-3-methyl-2-(methylamino)butanoyl]-cyclosporin (peptide)
21 | 14 | 5.1 | – | 3-[D-Ala]-4-[(2S,3S)-4-methoxy-3-methyl-2-(methylamino)butanoyl]-cyclosporin (peptide)
22 | – | 2.6 | – | 3-[D-Ala]-4-[(S)-4-methoxy-3-(methoxymethyl)-2-(methylamino)butanoyl]-cyclosporin (peptide)
23 | – | 1.17 | – | 3-[D-Ala]-4[(2S,3R)-2-Amino-3-methyl-4-(4-oxetan-3-yl-piperazin-1-yl)]-butanoyl]-cyclosporin (peptide)
24 | – | 5.2 | – | 3-[D-Ala]-4[(2S,3R)-2-Amino-4-(4-cyclobutyl-piperazin-1-yl)-butanoyl]-cyclosporin (peptide)
25 | – | 4.56 | – | 3-[D-Ala]-4[(2S,3R)-2-Amino-4-(4-ethyl-piperazin-1-yl)-butanoyl]-cyclosporin (peptide)
26 | – | 2.44 | – | 3-[D-Ala]-4[(2S,3R)-2-Amino-4-(4-isopropyl-piperazin-1-yl)-butanoyl]-cyclosporin (peptide)
27 | – | 6.1 | – | 3-[D-Ala]-4[(2S,3R)-2-Amino-4-[4-(2-methoxy-ethyl)-piperazin-1-yl]-3-methyl-butanoyl]-cyclosporin (peptide)
28 | – | 1.8 | – | 3-[D-Ala]-4[(2S,3S)-2-Amino-3-methyl-4-(4-oxetan-3-yl-piperazin-1-yl)-butanoyl]-cyclosporin (peptide)
29 | – | 3.6 | – | 3-[D-Ala]-4[(2S,3S)-2-Amino-3-methyl-4-morpholin-4-yl-butanoyl]-cyclosporin (peptide)
30 | – | 4 | – | 3-[D-Ala]-4[(2S,3S)-2-Amino-4-(4-cyclobutyl-piperazin-1-yl)-3-methyl-butanoyl]-cyclosporin (peptide)
31 | – | 5.1 | – | 3-[D-Ala]-4[(2S,3S)-2-Amino-4-(4-ethyl-piperazin-1-yl)-3-methyl-butanoyl]-cyclosporin (peptide)
32 | – | 3.2 | – | 3-[D-Ala]-4[(2S,3S)-2-Amino-4-[4-(2-methoxy-ethyl)-piperazin-1-yl]-3-methyl-butanoyl]-cyclosporin (peptide)
33 | – | 0.4 | – | 3-[D-Ala]-4[(2S,3S)-3-methyl-2-(methylamino)-4-(4-(methylsulfonyl)piperazin-1-yl)butanoyl]-cyclosporin (peptide)
